Measured values taken from US8329409B2, “Methods, kits, and antibodies for detecting parathyroid hormone” (Scantibodies Laboratory, Inc., priority 1999, dated 2012).
Where “and” joins values, the source holds several entries; their conditions need not be identical. Equal values may be shown once. Entries after “also recorded” stand apart in the source; their conditions may differ.

Legend:
ROS/17.2 cells = assay: cAMP production in osteoblastic cell line ROS/17.2; format: cell-based, rat; conditions: for effect on cAMP production: 10^-11 to 10^-8 mol/L, no-effect statement at 10^-8 mol/L
Method: Osteoblastic cell line. To compare the biological effects of the two peptides (hPTH 1-84 and 7-84), intracellular cAMP production was measured in the rate osteosarcoma cell line ROS/17.2, which has an osteoblastic phenotype and is known to increase cAMP production in response to PTH. Cells were cultured in Ham's F12 media containing 10% fetal bovine serum. Cells were plated out in 12-well plates at a density of 30,000 cells per well and grown to confluence. Cells were washed three times with KHMS buffer at 37° C. (KCI 4.0 mmol/L, CaCl2 1.25 mmol/L, MgSO4 1.25 mmol/L, KH2PO4 1.2 mmol/L, HEPES 10 mmol/L, NaCl 100 mmol/L, NaHCO3 37 mmol/L, and glucose 10 mmol/L, pH 7.5). cAMP production was measured using 500 μL of KHMS buffer (37°) containing isobutyl-1 methylxantine (IBMX) 1.0 mmol/L and various concentrations (10^−11 to 10^−8 mol/L) of hPTH 1-84 or hPTH 7-84. After a five-minute incubation, 100 μL of 1.8 mol/L pechloric acid were added. After an additional five-minute incubation at room temperature, 100 μL of 3 mol/KHCO3 were added to neutralize the acid. Samples were centrifuged at 3000 rpm for 15 minutes, and the supernatants were assayed for cAMP [26].

PTX rats = assay: Calcemic response in parathyroidectomized (PTX) rats; format: in vivo, Sprague-Dawley rats
Method: Calcemic response. Normal female Sprague-Dawley rats weighing 225 to 250 g (Harlan, Indianapolis, Ind., USA) were parathyroidectomized (PTX) and fed a 0.02% calcium diet. Rats with a plasma calcium below 7.0 mg/dL after overnight fasting were included in the study. A 20 μg dose of hPTH 1-84 or 7-84 was given intraperitoneally to PTX rats in four doses of 5 μg each at 30-minute intervals (0, 30, 60, and 90 minutes). For control studies, the rats received vehicle (saline solution) alone. Blood was drawn via the tail at 0, 60, 90, and 120 minutes. For competition experiments, rats received an injection of hPTH 7-84 10 minutes prior to each injection of hPTH 1-84. The molar ratio of hPTH 7-84/hPTH 1-84 was 1:1.
Total plasma calcium levels were determined using an atomic absorption spectrophotometer (model 1100B; Perkin Elmer, Norwalk, Conn., USA). Plasma phosphorus levels were determined using an autoanalyzer (COBAS MIRA Plus; Roche, Newark, N.J., USA).

Sprague-Dawley rats = assay: Phosphaturic response (clearance studies) in rats; format: in vivo
Method: Phosphaturic response. Normal female Sprague-Dawley rats weighing 225 to 250 g were prepared for clearance studies under light anesthesia. Polyethylene catheters (PE50) were placed in the femoeral artery for the collection of blood and measurement of blood pressure (Blood Pressure Analyzer; Micro-Medic, Inc., Louisville, Ky., USA), in the femoral vein for infusion and in the bladder for the collection of urine. Rats were placed in Plexiglas® holders and allowed to recover from the effect of the anesthetic for one hour. A priming dose (0.6 mL) of chemical inulin in saline was administered over a period of three minutes to achieve a plasma inulin level between […]. A solution of saline containing inulin to maintain this level and calcium gluconate to deliver 0.5 mg. Calcium was infused at the rate of 0.03 mL/min. After equilibration, a total of four 30-minute urine collections was obtained.
To assess the effect of hPTH 1-84 on phosphate excretion, urine was collected during two control periods, after which rats received a priming bolus of 1.8 μg of hPTH 1-84 followed by a sustained infusion that delivered a total of 8.2 μg of I-PTH. After an equilibration period of 20 minutes, two 30-minute urine collections were obtained. […]
Blood samples and blood pressure measurements were recorded at the beginning and end of the baseline period, at the beginning of the PTH infusion period, and at the end of the study. The concentration of inulin in plasma and urine was determined by the method of Fuhr, Kaczmarczyk, and Kruttgen, Klin Wochenschr, 33:729-730 (1955). The estimation of the glomerular filtration rate (GFR) by inulin clearance and the calculation of the fractional urinary excretion rate of phosphorus (FEP04) were performed in the standard fashion. Blood samples were centrifuged, and plasma phosphorus and calcium concentrations were measured.

[1] = tested on: Whole PTH assay (goat antibodies to PTH 39-84 and to the first six amino acids of human PTH); assay: Whole PTH IRMA assay, recognition of hPTH 1-84 vs hPTH 7-84; format: binding; conditions: hPTH 7-84 at a concentration as high as 10,000 pg/mL
Method: Another method would be to couple the initial wPTH sequence antibody to colloidal solid supports, such as latex particles. More specifically, one can create a signal antibody by iodinating 50 micrograms of affinity purified goat anti-(1-6) PTH antibody (Scantibodies Laboratory, Inc., Santee Calif., U.S.A.) by oxidation with chloramine T, incubation for 25 seconds at room temperature with 1 millicurie of 125-1 radioisotope and reduction with sodium metabisulfate. […] The fractions collected from the desalting column are measured in a gamma counter and those fractions representing the 125-1-goat anti-(1-6) PTH antibody are pooled and diluted to approximately 300,000 D PM (disintegrations per minute) per 100 microliters. […]
To conduct a whole PTH assay of a sample, 200 microliter samples of human serum are added to the solid phase antibody coated tubes. […] Radioactivity on the solid phase, which amount corresponds to the quantity of wPTH present, is measured using a gamma counter. The radioactivity data for the samples is processed by conventional analysis with use of the results from standards and controls and computer software in order that the concentration of whole PTH in the samples may be ascertained. […]

Nichols Intact PTH assay = assay: Nichols Intact (I-Nichols) PTH assay, recognition of hPTH 1-84 vs hPTH 7-84; format: binding; conditions: compared with hPTH 1-84
Excerpt: The present whole IRMA assay was compared to a conventional intact PTH or I-PTH immunoassay, the Allegro Nichols Intact-PTH assay, (which is commercially available and made by Nichols Institute Diagnostics of San Juan Capistrano, Calif., U.S.A.), in both PTH normal persons and those suffering from chronic uremia. This I-PTH immunoassay, detects both PTH7-84 and wPTH (see FIG. 10).
This new Whole PTH two-site assay (Scantibodies Laboratories, Santee, Calif., USA) first employees and antibody that recognizes the 39-84 region of the PTH molecule. This antibody, produced in a goat and affinity purified, is present in relative excess and is immobilized onto polystyrene-coated tubes. The second antibody, also developed in a goat, was also affinity purified and recognizes only the first six amino acids (1 to 6; Ser-Val-Ser-Glu-Ile-Gln) of the human PTH molecule (FIG. 1). This anti-hPTH assay uses synthetic human PTH 1-84 as the standard, with a limit of detection of approximately 1 to 2 pg/mL. Normal values range from 5 to 35 pg/mL. […] The Whole PTH assay was compared with the Intact PTH assay purchases from the Nichols Institute (I-Nichols, San Jan Capistrano, Calif., USA). Synthetic human PTH 1-84 and 7-84 were purchased from Bachem (Torrance, Calif. USA). To assess circulating levels of hPTH 1-84 and non-(1-84) PTH, heparinized blood samples were obtained before dialysis from 28 patients who had been maintained on chronic hemodialysis for 1.2 to 7.5 years and from 14 renal transplant patients (1 to 6 years).

| Molecule | intracellular cAMP after treatment (ROS/17.2 cells; 10^-8 mol/L peptide, five-minute incubation, increased from 18.1±1.25 nmol/well, N=6) | effect on cAMP production (ROS/17.2 cells) | increase in plasma calcium (PTX rats; PTX rats fed a 0.02% calcium diet, 20 μg intraperitoneally in four doses of 5 μg, N=9, P<0.001) [mg/dL] | glomerular filtration rate (GFR), treatment period (Sprague-Dawley rats; rats infused with hPTH 1-84 alone, control period 1.8±0.3, N=10) [mL/min] | fractional excretion of phosphate (FEP04), treatment period (Sprague-Dawley rats; rats infused with hPTH 1-84 alone, increased from 11.9±2.4, N=10, P<0.001) [%] | detection by the Whole PTH assay [1] | decrease in plasma calcium (PTX rats; PTX rats fed a 0.02% calcium diet, 20 μg intraperitoneally in four doses of 5 μg, N=5, P<0.05) [mg/dL] | decrease of the calcemic response induced by hPTH 1-84 alone (PTX rats; hPTH 7-84 given with hPTH 1-84 in a 1:1 molar ratio, PTX rats, N=6, P<0.001) [%] | decrease of the increase in FEP04 (phosphaturia) induced by hPTH 1-84 (Sprague-Dawley rats; co-administration of hPTH 7-84 with hPTH 1-84 (molar ratio 4:1)) [%] | glomerular filtration rate (GFR), treatment period (Sprague-Dawley rats; hPTH 7-84 given simultaneously with hPTH 1-84 (molar ratio 4:1), increased from 2.1±0.1, N=8, P<0.05) [mL/min] | recognition by the Nichols Intact PTH assay (Nichols Intact PTH assay) | recognition by the Nichols Intact PTH assay (Nichols Intact PTH assay; listed as 7-84) | recognition by the Nichols Intact PTH assay (Nichols Intact PTH assay; listed as PTH7-84) |
| --- | --- | --- | --- | --- | --- | --- | --- | --- | --- | --- | --- | --- | --- |
| hPTH 1-84: Synthetic human PTH 1-84 purchased from Bachem; complete 84 amino acid human parathyroid hormone (SEQ ID NO: 1) (peptide) SVSEIQLMHNLGKHLNSMERVEWLRKKLQDVHNFVALGAPLAPRDAGSQRPRKKEDNVLVESHEKSLGEADKADVNVLTKAKSQ | 738±4.13 nmol/well and 738±4.1 nmol/well | increased cAMP production in a does-dependent manner; also recorded: increased cAMP production in a dose-dependent manner | 0.65 ± 0.10 | 1.8 ± 0.1 | 27.7±2.4 | detected with a high degree of sensitivity | – | – | – | – | – | – | – |
| hPTH 7-84: Synthetic human PTH 7-84 purchased from Bachem; large non-(1-84) PTH fragment, PTH antagonist (PIN) (peptide) peptide: LMHNLGKHLNSMERVEWLRKKLQDVHNFVALGAPLAPRDAGSQRPRKKEDNVLVESHEKSLGEADKADVNVLTKAKSQ | – | no effect | – | – | – | undetectable | 0.30 ± 0.08 | 94 | 50.2 | 2.6 ± 0.2 | does not differentiate | did not discriminate | detects |
